Columns and labels:
[1] = target: T1, human FcγRIIIa V158 allotype, extracellular domain (human, UniProt P08637 17-208); assay: RIA, 35S-labelled Fc on coated receptor
T1 construct: extracellular domain; expressed in HEK-EBNA cells; also called hFcγRIIIa; CD16; not shown: Flag10His tag of the vector
Excerpt: Fc polypeptide variants were screened for binding to FcγRIIIa using a RIA (radio immunoassay) as described in Jermutus et al. (2001, PNAS 98(1): 75-80). The Fc region from the plasmid for each variant was PCR amplified to produce a linear DNA template. This template was purified and a T7 promoter sequence attached at the 5′ end to enable in vitro transcription. The resulting mRNA was purified using G25 Sephadex™ columns. For each variant, in vitro translations in the presence of 35S-labelled methionine were set up at 37° C. for 40 min. The translations were stopped using PBS with 0.05% Tween 20. The translation mixture was added to a plate coated with 100 nM hFcγRIIIa and incubated for 2 hours at room temperature. The plates were washed three times in PBS with 0.05% Tween 20 and three times in PBS. The bound protein was eluted with 0.1M triethylamine and the radiolabel quantified by liquid scintillation counting.

human C1q = target: T2, human C1q (human, UniProt P02745 23-245; P02746 28-253; P02747 29-245); assay: RIA, 35S-labelled Fc on coated C1q
T2 construct: Human C1q (Sigma) in the ELISA; hC1q coated at 100 nM in the RIA; also called hC1q
Excerpt: IgG1 Fc variants arising from round three outputs of Fcγ1 selections against human C1q using ribosome display, were screened for binding using the primary RIA as described in Jermutus et al. (2001, PNAS 98(1): 75-80). In brief, the Fc region from the plasmid for each variant (96 well format) was PCR amplified to produce a linear DNA template. This template was gel purified and reamplified attaching the T7 promoter sequence for T7 directed in vitro transcription and the resulting mRNA purified on G25 Sephadex columns. For each variant, in vitro translations in the presence of 35S-labelled methionine was performed at 37° C. for 40 mins. The translations were stopped with PBS with 0.05% Tween 20. The translation mixture was incubated on a plate coated with 100 nM hC1q for 2 hours at room temperature. Plates were washed three times in PBS with 0.05% Tween 20 and three times in PBS. The remaining radioactivity was eluted with 0.1M triethylamine and quantified by liquid scintillation counting.

T2 sequence (P02745 23-245 limits assumed, chain 1 of 3): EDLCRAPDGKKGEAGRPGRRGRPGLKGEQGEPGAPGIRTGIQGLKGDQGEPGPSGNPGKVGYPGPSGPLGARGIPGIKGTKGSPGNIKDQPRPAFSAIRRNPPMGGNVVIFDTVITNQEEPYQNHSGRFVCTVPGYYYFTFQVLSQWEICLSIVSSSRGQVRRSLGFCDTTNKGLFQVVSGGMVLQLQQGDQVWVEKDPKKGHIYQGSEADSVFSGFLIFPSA
T2 sequence (P02746 28-253 limits assumed, chain 2 of 3): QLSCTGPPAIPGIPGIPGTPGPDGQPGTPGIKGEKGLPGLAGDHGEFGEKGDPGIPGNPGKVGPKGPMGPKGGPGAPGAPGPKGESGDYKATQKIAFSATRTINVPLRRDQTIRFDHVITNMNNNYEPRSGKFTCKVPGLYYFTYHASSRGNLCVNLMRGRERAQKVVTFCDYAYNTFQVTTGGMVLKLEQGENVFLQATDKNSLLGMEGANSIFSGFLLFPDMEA
T2 sequence (P02747 29-245 limits assumed, chain 3 of 3): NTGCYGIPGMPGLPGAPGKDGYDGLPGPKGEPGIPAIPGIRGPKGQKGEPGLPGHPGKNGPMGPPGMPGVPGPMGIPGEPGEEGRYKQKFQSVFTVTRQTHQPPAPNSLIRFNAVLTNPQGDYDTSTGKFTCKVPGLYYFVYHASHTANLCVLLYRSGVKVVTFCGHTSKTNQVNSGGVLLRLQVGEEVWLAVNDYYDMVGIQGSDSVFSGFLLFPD
T1 sequence (P08637 17-208 F176V): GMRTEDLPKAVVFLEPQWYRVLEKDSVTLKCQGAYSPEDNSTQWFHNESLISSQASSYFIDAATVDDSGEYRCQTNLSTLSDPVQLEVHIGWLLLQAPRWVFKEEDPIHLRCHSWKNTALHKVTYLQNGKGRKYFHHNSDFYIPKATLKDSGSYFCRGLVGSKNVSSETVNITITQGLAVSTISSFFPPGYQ

Binder	RIA for RIIIa (V158) [1] [fold over wild-type]	RIA for C1q (human C1q) [fold over wild-type]
Fc polypeptide variant 136D04b (Fcγ1, in vitro translated) (other, Fc region only, in vitro translated with 35S-methionine for RIA) AHTCPPCPAPELLGGPSVFLFPPKPKDTLMISRTPEVTCVVVDVSHEDPEVKFNWYVDGVEVHNAKTKPREEQYNSTYRVVSVLTVLHQDWLNGKEYKCKVSNKALPAPIEKIISKAKGQPREPQVYTLPPSREEMTKNQVSLTCLVKGFYPSDIAVEWESNGQPENNYKTTPPVLDSDGSFFLYSKLTVDMSRWQQGNVFSCSVMHEALHNHYTQKSLSLSPGK	2.3	
Fc polypeptide variant 3C11 (Fcγ1, in vitro translated) (other, Fc region only, in vitro translated with 35S-methionine for RIA) AHTCPPCPAPELLGGPSVFLFPPKPKDTLMISRTPEVTCVVVDVSHEDPEVKFNWYVDGVEVHNAKTKPREEQYNSTYRVVSVLTVLHQDWLNGKEYKCKVSNKALPAPIEKTISKAKGQPREPRVYTLPPSREEMTKYQVSLTCLVKGFYPSDIAVEWESNGQPENNYKTTPPVLDSDGSFFLYSKLTVDKSRWQQGNVFSCSVMHEALHNHYTQRSLSLSPGK		1.2
Fc polypeptide variant 2H06 (Fcγ1, in vitro translated) (other, Fc region only, in vitro translated with 35S-methionine for RIA) AHTCPPCPAPELLGGPSVFLFPPKPKDTLMISRTPEVTCVVVDVSHGDPEVKFNWHVDGVEVHNAKTKPREEQYNSTYRVVSVLTVLHQDWLNGKEYKCKVSSKALPAPIEKTISKAKGQPREPQVYTLPPSREEMTKNQVSLTCLVRGFYPSDIAVEWESNGQPENNYKTTPPVLDSDGSFFLYSKLTVDKSRWQQGNVFSCSVMHEALHNHYTQKSLSLSPGK		1.2
Fc polypeptide variant 125B01 (Fcγ1, in vitro translated) (other, Fc region only, in vitro translated with 35S-methionine for RIA) ANTCPPCPAPELLGGPSVFLLPPKPKDTLMISRTPEVTCVVVDVSHEDPEVKFNWYVDGVEVHNAKTKPREEQYNSTYRVVSVLTVLHQDWLNGKEYKCKVSNKALPAPIEKTISKAKGQPREPQVYTLPPSREEMTKNQVSLTCLVKGFYPSDIAVEWESNGQPENNYKATPPVLDSDGSFFLYSKLTVDKSRWQQGNVFSCSVMHEALPNHYTQKSLSLSPGK	1.3	
Fc polypeptide variant 2A11 (Fcγ1, in vitro translated) (other, Fc region only, in vitro translated with 35S-methionine for RIA) AHTCPPCPAPELLGGPSVFLFPPKPKDTLMISRTPEVTYVVVDVSHEDPEVKFNWYVDGVEVHNAKTEPREEQYNSTYRVVSVFTVLHRDWLNGKEYKCKVSNKALPAPIGKTISKAKGQPREPQVYTLPPSREEMTKNQVSLTCLVKGFYPSDIAVEWESNGQPENNYKTTPPVLDSDGSFFLYSKLTVDKSRWQQGNVFSCSVMHEALHNHYTLKSLSLSPGK		2.4
Fc polypeptide variant 110H08 (Fcγ1, in vitro translated) (other, Fc region only, in vitro translated with 35S-methionine for RIA) AHTCPPCPAPELLGGPSVFLFLPEPKDTLMISRTPEVTCVVVDVSHEDPEVKFNWYVDGVEVHNAKTKPREEQYNSTYRVVSVLTVLHQDWLNGKEYKCKVSNKALPAPIEKTISKAKGQPREPQVYTLPPSREEMTKNQVSLTCLVKGFYPSDIAVEWESNGQPENNYKTTPPVLGSDGSFFLYSRLTVDKSRWQQGNVFSCSVMHEALHNHYTQKSLSLSPGK	2.7	
Fc polypeptide variant 121F02 (Fcγ1, in vitro translated) (other, Fc region only, in vitro translated with 35S-methionine for RIA) AHTCPPCPAPELLGGPSVFLSPPKLKDTLMISRTPEVTCVVVVASHEDPEVKFNWYVDGVEVHNAKTKPREEQYNSTYRVVSVLTVLHQDWLNGKEYKCKVSNKALPAPIEKTISKAKGQPREPQVYTLPPSREEMTKNQVSLTCLVKGFYPSDIAVEWENNGQPENNYKTTPPVLDSDGSFFLYSKLIVDKSRWQQGNVFSCSVMHEALHNHYTQKSLSLSPGK	1.7	
Fc polypeptide variant 110B09 (Fcγ1, in vitro translated) (other, Fc region only, in vitro translated with 35S-methionine for RIA) AHTCPPCPAPELLGGPSVFLFPPKPKDTLMISRTPEVTCVVVDVSHEDPEVKFDWYVDGVEVHNAKTKPQEEQYNSTYRVVSALTVLHQDWLNGKEYKCKVSNKALPAPIEKTISKAKGQPREPQVYTLPPSREEMTKNQVSLTCLVKGFYPSDVAVEWESNGQPENNYKTAPPVLDSDGSFFLYSKLTADKSRWQQGNVFSCSVMHEALHNHYTQESLSLSPGK	4.4	
Fc polypeptide variant 2C06 (Fcγ1, in vitro translated) (other, Fc region only, in vitro translated with 35S-methionine for RIA) AHTCPPCPAPELLGGPSVFLFPPKPKDTLMISRTPEVTCVVVDVSHEDPEVKFNWYVDGVGVHNAKTKPREEQYNSTYRVVSVLTVLHQDWLKGKEYKCKVSNKALPAPIGKTISKAKGQPQEPQVYTLPPSREEMTKNQVSPTCLVKGFYPSDIAVEWESNGQPENNYKTTPPVLDSDGSFFLYSKLTVDKSRWQQGNVFSCSVMHEALHNHYTQKSLTLSPGK		1.4
Fc polypeptide variant 125E05 (Fcγ1, in vitro translated) (other, Fc region only, in vitro translated with 35S-methionine for RIA) AHTCPPCPAPELLGGPSAFLFPPKPKDTLMISRTPEVTCVVVDVGHEDPEVKFNWYVDGVEVHNAKTKPREEQYNSTYRVVSVLTVLHQDWLNGKEYKCKVSNKALPAPIEKTISKAKEQPREPQVYTLPPSRGEMTKNQVSLTCLVKGFYPSDIAVEWESNGQPENNYKTTPPVLDSDGSFFLYSKLTVDKSRWQQGNVFSCSVMHEALHNHYTQKSLSLSPGK	4.7	

The next lines start with the values.

RIA for RIIIa (V158) [1] [fold over wild-type]	RIA for C1q (human C1q) [fold over wild-type]	Binder
3.4		Fc polypeptide variant 135A09 (Fcγ1, in vitro translated) (other, Fc region only, in vitro translated with 35S-methionine for RIA) AHTCPPCPAPELLGGPSVFLFPPKPKDTLMISRTPEVTCVVVDVSHKDPEVKFNWYVDGVEVHNAKTKPREEQYNSTHRVVSVLTVLHQDWLNGKEYKCKVSNKALPAPIEKTISKAKGRPREPQVYTLPPSREEMTKNQVSLTCLVKGFYPSDIAVEWESNGQPENNYKTTPPVLDSDGSFFLYSKLTVDKSRWQQGNIFSCSVMHEALHNHYTQKSLSLSPAK
2.3		Fc polypeptide variant 136G11 (Fcγ1, in vitro translated) (other, Fc region only, in vitro translated with 35S-methionine for RIA) AHTCPPCPAPELLGGPSVFLFPPKAKDTLMISRTPKVTCVVVDVSHEDPEVKFNWYVNGVEVHNARTKPREEQYDSAYRVVSVLTVLHQDWLNGKEYKCEVSNKALPAPIEKTISKAKGRPREPQVYTLPPAREEMTKNQVSPTCLVKGFYPSDIAVEWESNGQPENNYKTTPPVLDSDGSFFLYSKLTVDKSRWQQGNVFSCSVMHEALHNHYTQKSLSLSPGK
1.7		Fc polypeptide variant 135E07 (Fcγ1, in vitro translated) (other, Fc region only, in vitro translated with 35S-methionine for RIA) AYTCPPCSAPELLGGPSVFLFPPKPKDTLMISRTPEVTCVVVDVSHEDPEVKFNWYVDGVEVHNAKTKPREEQYNSTYRVVSVLTVLHQDWLNGKEYKCKASNKALPAPIDKTISRAKGQPREPQVYTLPPSREEMTKNQVCLTCLVKGFYPSDIAVEWESNGQPENNYKTTPPVLDSDGSFFLYSKLTVDKSRWQQGNVFSCSVMHEALHNHYTQKSLSLSPGK
2.3		Fc polypeptide variant 136D04a (Fcγ1, in vitro translated) (other, Fc region only, in vitro translated with 35S-methionine for RIA) AHTCPPCPAPELLGGPSVFLFPPKPKDTLMISRTPEVTCVVVDVSHEDPEVKFNWYVDGVEVHNAKTKPREEQYNSTYRVVSVLTVLHQDWLNGKEYKCKVSNKALPAPIEKIISKAKGQPREPQVYTLPPSREEMTKNQVSLTCLVKGFYPSDIAVEWESNGQPENNYKTTPPVLDSDGSFFLYSKLTVDMSRWQQGNVFSCSVMHEALHNHYTQKSLSLSRGK
1.9		Fc polypeptide variant 126F07 (Fcγ1, in vitro translated) (other, Fc region only, in vitro translated with 35S-methionine for RIA) AHTCPLCPAPELLGGPSVFLFPPKPKDTLMISRTPEVTCVVVDVSHEDPEVKFNWYVDGVEVHNAKAKPREEQYNSTYRVVSVLTVLHQDWLNGKEYKCKVSNKALPAPIEKTISKAKGQPREPQVYTLPPSREEMTKNQVSQTCLVKGFYPSDIAVEWESNGQPESNYKTTPPVLDSDGSFFLYSKLTVDKSRWQQGNVFSCSVMHEALHNHYTQKGLSLSPGK
1.8		Fc polypeptide variant 126G05 (Fcγ1, in vitro translated) (other, Fc region only, in vitro translated with 35S-methionine for RIA) AHTCPPCPAPELLGGPSVLLFPPKPKDTLMISRTPEVTCVVVDVSHEDPEAKFNWYVDGVEVHNAKTKPREEQYNSTYRVVSVLTVLHQDWLNGKEYKCKVSNKALPAPIEKTISKAQGQPREPQVYTLPPSREEMTKNQVSLTCLVKGFYPSDIAVEWESNGQPENNYKTTPPVLDSDGSFFLYSKLTVDKSRWQQGNVFSCSVMHEALHNHYTQKSFSLSPGK
1.7		Fc polypeptide variant 135C09 (Fcγ1, in vitro translated) (other, Fc region only, in vitro translated with 35S-methionine for RIA) AHACPPCPAPELLGGPSVFLFPPKPKDTLMISRTPEVTCVVVDVSHEDPEVKFNWYVDGVEVHNAKTKPREEQYNSTYCVVGVLTVLHQNWLDGKEYKCKVSNKALPAPIEKTISKAKGQPREPQVYTSPPSREEMTKNQVSLTCLVKGFYPSDIAVEWESNGQPENNYKTTPPVLDSDGSFFLYSKLTVDKSRWQQGSVFSCSVMHEALHNHYTQKSLSLSPGK
1.7		Fc polypeptide variant 125H10 (Fcγ1, in vitro translated) (other, Fc region only, in vitro translated with 35S-methionine for RIA) AHTCPPCPAPELLGGPSVFLFPPKPKDTLTISRTPEVTCVVVDVSHEDPEVKFNWYVDGVEVHNAKTKLREEQYNSTYRVVSVLTVLHQDWLNGKEYKCKVSNKALPAPIEKTISKAKGQPREPQVYTLAPSWEEMTKNQVSLTCLVKGFYPSDIAVEWESNGQPENDYKTTPPVLDSDGSFFLYGKLTVDKSRWQQGNVFSCFVMHESLHNHYTQKSLSLSPGK
